According to the DeepSol protein solubility set:

Test: soluble on expression in E. coli; label from the status in PepcDB or PDB records

| Sequence | soluble on expression in E. coli |
| --- | --- |
| MGSDKIHHHHHHMMLNQYQIFTMVDNLSLLHHKNDPMNKNDLINTKSTLCPCGSKQLYSKCCEPYHLSHAVAERPEHLMRSRYSAFVLRQFHYLITTHHADYLHGLTEQQLAQGDVQWLGLQVLSSKQESDHGEVTFKAWFIEDKHIDAIYECSSFIKQDGCWFYTHGQQMQTPLPSRNDACICSSGKKFKLCCAKLMR | not soluble |
| MVCFGVGSGGTVTGVGRYLRAQKQNIGVYPVEPFESSVLSGFPRGPHKIHGIGAGLIPGNVDRSLFTEVLRVKSEDAMKMARRLADEEAILGEISSGANVVAAVELACRPENIGKLIVTTVNSFAERYFSTELYSTLLSEVSKLPISTDEQAVDIAKKYLGL | not soluble |
| MDILKLSDFIGNTLIVSLTEDRILVGSLVAVDAQMNLLLDHVEERMGSSSRMMGLVSVPRRSVKTIMIDKPVLQELTANKVELMANIV | not soluble |
| TEDFRWKTTFNYSQNRNKVVELAPNYTSFVYGDPGFSMAYMMQIKEGGSLGDIYGNTFARDEQGKIKVSDEGKPISESGNKTYLGNCNPDFLLSWANTFTYKGFSLYFLIDMRKGGDVMSLTQATLDGRGVTKATAEARDRGYVEVDGTRFENVEGFYSVVGDRNGISERYMYSATNIRLRELSLSYSFPSTLLAKTKVFTGIDVSLVGRNLFFFYKDAPFDPDAILSVGNTNQGVDVFGMPTTRNIGFNVKFTF | not soluble |
| RERVKKEIKDLEKAKDFTEELIEKVKKYKALAREAALSKIGELASEIFAEFTEGKYSEVVVRAEENKVRLFVVWEGKERPLTFLSGGERIALGLAFRLAMSLYLAGEISLLILDEPTPYLDEERRRKLITIMERYLKKIPQVILVSHDEELKDAADHVIRISLENGSSKVEVVS | soluble |
| MAHHHHHHMEKYKNILEKLEWYKNKSSEKYEFGIYEIDKREVFITTKYSYGFVNNKPLLPGHILLTTLKKKKHYNDLDIEEIIDINLLCNFMCYIMGNLFNTTDFSIAIQDGKEAGQTVDHVHIHIIPRKINDYKNNDNIYNDMNKINLGYGKNIICNSCNNTINVCSQNEIERNFKLEEFNTSIRSIEQMEEEANLIKSYINEKFSS | not soluble |
| MPAPLTFARLTQVDPNLITAHMRDPRLAIHMPLMPDSWSDAQTVSFVQSKEACWDRDGLGHWAFLHQDRYVGWGGFQREGEEWDFGLVLCPAHFGLGLPIARKALDFAHADPRIPFVTFLLPPSRQHLGALRRLGAQPLGETDHAGHRFLKFRLDTA | not soluble |
| MSLQTLSIQHGTLVTMDQYRRVLGDSWVHVQDGRIVALGVHAESVPPPADRVIDARGKVVLPGFINAHTHVNQILLRGGPSHGRQLYDWLFNVLYPGQKAMRPEDVAVAVRLYCAEAVRSGITTINDNADSAIYPGNIEAAMAVYGEVGVRVVYARMFFDRMDGRIQGYVDALKARSPQVELCSIMEETAVAKDRITALSDQYHGTAGGRISVWPAPAITPAVTVEGMRWAQAFARDRAVMWTLHMAESDHDERLHWMSPAEYMECYGLLDERLQVAHCVYFDRKDVRLLHRHNVKVASQVVSNAYLGSGVAPVPEMVERGMAVGIGTDDGNCNDSVNMIGDMKFMAHIHRAVHRDADVLTPEKILEMATIDGARSLGMDHEIGSIETGKRADLILLDLRHPQTTPHHHLAATIVFQAYGNEVDTVLIDGNVVMENRRLSFLPPERELAFLEEAQSRATAILQRANMVANPAWRSLEGHHHHHH | soluble |
| MSLRIIKAGLIGCGNISSIYFENVHRFKHLTIVACADLHLERARAQAEKYRIPKACTVAELLEDPEIELVINLTIPQVHAKVCIQALEAGKHVYTEKPLTITLEEGQKLLEKAKETGLLVGCAPDTFLGAGIQTSIQVIERGEIGTPVGASAFMIGRGHEHWHPDPAFYYDVGGGPMYDMGPYYLTALTALLGPMARVSGSARITYPERTILSEPKKGTKIKVSTPTHISGVIDFANGAIASITTSFDAFGGSVLPPIEVYGSEGTLLVPDPNTFDGPVQLRKRDEREFVEVPLTYHYTENNRGIGVADMAMSLLTGSDYRASGTMGFHVLEAMHGFHMSSTSGHHYQMKSTCRKPEPLPVDFRFSYVETEGHHHHHH | soluble |
| EDLIFGKRISLDLGYREKALFYSLEEHVALIHPEDHDNFIHCWQLFISSANLKDNFSCTYRLKTSDGQWFWYKDLGKIVAVDANNHPVRVTGSYTNITESRANEERAQYYGDAFQQTQ | not soluble |
| MQPSHPSQPSHADRAAPTSALAPVVPPVLAEVVRSGFVEGRHRGSLVVLGADGAVELALGEVTAPVFPRSSNKPMQAAGVLRAGLDLAGERLALAAASHSGEPFHRDLVRKMLDEYGLDPALLQCPPDLPLDAEERETYLASGAEPDRVTMNCSGKHTAMLAVCAQQGWPLETYLDPEHPLQRVIHRVVEDAAGEPVAAVGTDGCGAPLMAISLVGLARAFRSFVAAEPGSAERRVADAMRAHPEYVAGSRRADTWLMREVPGSLSKMGAEAVQAVALPDGRALAFKIEDGATRALGPVLARALTLLGVDAPVVGRIGRAPLLGGGREVGEIRASFLEHHHHHH | not soluble |
| MSLAFHEGLAAHLATGVTTTCHAWAIDRADGVVMGFTDHDRGLVFEGIDFRADSGLSALALQRGTGLAVDNSEAIGALTDAAIREADIDAGRFDGAGVRAWLVNWTDVAQRQLMFRGTIGEIRRAGGAFTAELRGLTEALNQPRGRVYQTPCGAVLGDAACGVDLGAPGYAAEAEVLGVEEGQRLVLPGLPDFEAGWFARGRLVVLDGAAEGLSGVVKRDVIAEGARHVDLWQALRAPLSVGDRIRIEAGCDKRMETCRYKFNNLLNYQGFPDIPGEDWMTVMPAQSGATGGGSRREGHHHHHH | soluble |
| MSLSANFSENISRLGLSSRSKQEKLAHLMETELTHLQASFIEAPTGLGKTYGYLLPILASGKGLVVSTATKVLQKQLVNDVAPKLGKTFGLKMAKIVGTKNYISLRKFSELLLNNTDGKNFEIFKMKILIWLTETRTGELDEVSKVMTNDDYFEVIRHDGYVNTKQLHYEQDFWLKAQKEAEQAEIKVVNHAYLIERLADYPETFLENRVLVVDEAQQLFPIMENAGQKSLKITDELIKIDAETSENPQLTKRLQESLVFQLNKKELDLNKIKIDADELGLRNLSALLEADNQIVWRENGMLYASDQDFYNFERLIPKNTKLFMLGATLSLSKDKPSFPDLLGFTDYRFFKIEGNQATNQQLLTVTDAPNIKNLSLIDYADYTANSIGELSKLNLPMVVLFTSKMALTFVAEKLSAEGFEILAQDINGSPAQIKKKFDKGEGKILLGLGSFWEGVDFDKQNQVILVIPRLPFATPDDILTKKYAQKFENPFYDFNVPMATLKLRQAIGRVNRRKNQYSSIVVLDKRLAGKSYAKRMRKNLSETLPVKMLNLLDTISEIKNFLIEGHHHHHH | not soluble |
| GSDNESDEEVAGKKSFSAQEREYIRQGKEATAVVDQILAQEENWKFEKNNEYGDTVYTIEVPFHGKTFILKTFLPCPAELVYQEVILQPERMVLWNKTVTACQILQRVEDNTLISYDVSAGAAGGVVSPRDFVNVRRIERRRDRYLSSGIATSHSAKPPTHKYVRGENGPGGMIVLKSASNPRVCTFVWILNTDLKGRLPRYLIHQSLAATMFEFAFHLRQRISELGAR | soluble |
| MKTRLNKTSLNQALLPTSTAGSLPKPLWLAEPETLWSPWKLQGEELITGKHDALRLSLQDQQLAGIDIVSDGEQTRQHFVTTFIEHLNGVDFSKRKIVKIRDRYDASVPTVVGPVSRQKSVFVEDAKFLRKQTTQPIKWALPGPMTMIDTLYDDHYKSREKLAWEFAKILNEEAKELEAAGVDIIQFDEPAFNVFFDEVNDWGIACLERAIEGLKCETAVHICYGYGIKANTDWKKTLGSEWRQYEEVFPKLQKSNIDIISLECHNSHVPMELLELIRGKKVMVGAIDVATDTIETAEEVADTLRKALKFVDADKLYPCTNCGMTPLSHQVTRGKLNALSAGAEIVRKELLALR | soluble |
